Data on 8 molecules can be found in patent US20250136696A1 (HARBOUR BIOMED SHANGHAI, published 2025).

Positions count from the first letter of the chain named.

First the molecules themselves.
T1: Recombinant human B7H4 Fc chimera (R&D, 8870-B7-050) (human, UniProt Q7Z7D3 29-258)
T1 construct: Bought
T1 sequence (looked up): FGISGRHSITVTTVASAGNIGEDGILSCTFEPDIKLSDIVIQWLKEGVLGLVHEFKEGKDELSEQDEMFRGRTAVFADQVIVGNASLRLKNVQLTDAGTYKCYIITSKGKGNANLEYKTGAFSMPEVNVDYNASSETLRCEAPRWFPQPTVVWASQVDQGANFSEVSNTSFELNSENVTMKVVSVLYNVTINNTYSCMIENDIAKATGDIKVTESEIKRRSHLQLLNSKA

T2: biotinylated human B7-H7 protein (Acro Biosystems, B77-H82F5) (human, UniProt Q9UM44 23-344, biotinylated)
T2 construct: Bought soluble protein; also called biotin-B7H7 protein
T2 sequence (looked up): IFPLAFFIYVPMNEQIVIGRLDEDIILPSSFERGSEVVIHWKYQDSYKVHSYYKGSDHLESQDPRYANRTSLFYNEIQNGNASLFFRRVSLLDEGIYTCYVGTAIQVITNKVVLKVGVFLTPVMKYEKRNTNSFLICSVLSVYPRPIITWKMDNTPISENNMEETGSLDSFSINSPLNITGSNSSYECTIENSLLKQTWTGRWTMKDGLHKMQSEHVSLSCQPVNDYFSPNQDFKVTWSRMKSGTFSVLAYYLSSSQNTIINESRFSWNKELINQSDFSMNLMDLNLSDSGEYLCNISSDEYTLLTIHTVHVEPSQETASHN

T3: human B7-H7 recombinant protein (human, UniProt Q9UM44 23-344)
T3 construct: also called human B7-H7 protein
T3 sequence (looked up): T2 sequence (looked up)

B1: PR004263 (antibody, human IgG1, kappa, L234A L235A)
heavy: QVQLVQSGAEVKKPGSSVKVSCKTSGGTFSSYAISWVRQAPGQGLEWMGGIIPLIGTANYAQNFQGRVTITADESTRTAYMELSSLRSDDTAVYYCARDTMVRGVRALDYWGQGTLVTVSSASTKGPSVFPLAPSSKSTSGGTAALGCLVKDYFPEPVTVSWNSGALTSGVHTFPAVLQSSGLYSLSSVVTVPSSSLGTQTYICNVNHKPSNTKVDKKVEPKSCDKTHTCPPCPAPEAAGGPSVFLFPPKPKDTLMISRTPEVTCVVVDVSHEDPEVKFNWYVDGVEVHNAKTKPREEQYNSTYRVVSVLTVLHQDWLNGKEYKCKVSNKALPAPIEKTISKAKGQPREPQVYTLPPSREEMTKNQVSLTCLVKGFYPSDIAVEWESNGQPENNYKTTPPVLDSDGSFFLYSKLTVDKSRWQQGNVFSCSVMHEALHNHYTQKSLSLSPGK
light: DIQLTQSPSFLSASVGDRVTITCRASQGISSYFAWYQQKPGKAPKLLIYAASTLQSGVPSRFSGSGSGTEFTLTISSLQPEDFATYYCQHLNRYPWTFGQGTKVEIKRTVAAPSVFIFPPSDEQLKSGTASVVCLLNNFYPREAKVQWKVDNALQSGNSQESVTEQDSKDSTYSLSSTLTLSKADYEKHKVYACEVTHQGLSSPVTKSFNRGEC
notes: Variant of PR003264; Human IgG1 with LALA mutation in Fc
B2: PR004260 (antibody, human IgG1, kappa, L234A L235A)
heavy: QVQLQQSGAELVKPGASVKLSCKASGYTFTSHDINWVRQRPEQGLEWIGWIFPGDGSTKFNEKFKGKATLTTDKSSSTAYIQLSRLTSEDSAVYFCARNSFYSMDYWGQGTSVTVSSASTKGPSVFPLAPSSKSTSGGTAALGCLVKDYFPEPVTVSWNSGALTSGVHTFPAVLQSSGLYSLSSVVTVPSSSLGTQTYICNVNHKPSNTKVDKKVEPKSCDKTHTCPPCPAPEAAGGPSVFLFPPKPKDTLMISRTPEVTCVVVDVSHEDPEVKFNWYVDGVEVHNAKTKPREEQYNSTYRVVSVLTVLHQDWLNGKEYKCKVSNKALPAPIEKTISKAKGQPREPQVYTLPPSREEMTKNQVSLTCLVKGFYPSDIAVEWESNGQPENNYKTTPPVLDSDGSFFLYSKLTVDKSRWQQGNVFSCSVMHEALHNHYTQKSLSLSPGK
light: DIVMSQSPSSLAVSAGEKVTMSCKSSQSLLNSRTRKNQLAWYQQKPGQSPKLLIYWASTRESGVPDRFTGSGSGTDFTLTISSVQAEDLAVYYCKQSYNLRTFGGGTKLEIKRTVAAPSVFIFPPSDEQLKSGTASVVCLLNNFYPREAKVQWKVDNALQSGNSQESVTEQDSKDSTYSLSSTLTLSKADYEKHKVYACEVTHQGLSSPVTKSFNRGEC
notes: Variant of PR003181; Human IgG1 with LALA mutation in Fc
B3: PR003251 (antibody, human IgG1, kappa, V domains shown)
VH: QVQLVESGGGVVQPGRSLRLSCAVSGFTFSRYGMHWVRQAPGKGLDWVAVIWYNGNNKYYTDSVKGRFTISRDNSKNTLFLQMNSLRAEDTAVYYCARDGAYSYGPFDYWGQGTLVTVSS
VL: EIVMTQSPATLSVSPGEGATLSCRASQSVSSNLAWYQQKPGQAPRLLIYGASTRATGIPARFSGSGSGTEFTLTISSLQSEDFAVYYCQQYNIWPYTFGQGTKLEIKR
notes: Human IgG1; also called 29F2C8
B4: PR003254 (antibody, human IgG1, kappa, V domains shown)
VH: B3 VH with V24A, R31S, D46E, V50D, T61A, F80Y, V93L, A101G
VL: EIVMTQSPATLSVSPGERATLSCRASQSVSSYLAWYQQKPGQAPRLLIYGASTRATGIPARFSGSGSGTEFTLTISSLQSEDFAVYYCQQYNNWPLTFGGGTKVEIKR
notes: Human IgG1; also called 59D6D2
B5: PR003262 (antibody, human IgG1, kappa, V domains shown)
VH: B3 VH with V24A, M34I, D46E, N56R, T61V, F80Y, A101G
VL: EIVMTQSPATLSVSPGERATLSCRASQSFSNNLAWYQQKPGQAPRLLIYGASTRATGIPARFSGSGSGTEFTLTISSLQSEDFAVYYCHQYNIWPLTFGGGTKVEIKR
notes: Human IgG1; also called 77D5A4
B6: PR003260 (antibody, human IgG1, kappa, V domains shown)
VH: QVQLVESGGGVVQPGRSLRLPCAASGFTFSRYGMHWVRQAPGKGLEWVADIWYDGSKKYYADSVKGRFTISRDNSKNTLYLQMNSLRAEDTAVYFCTRDGGYSYGPFDYWGQGTLVTVSS
VL: B5 VL with F29V, N31S, G50Y, T56P, G66E, H89Q, L96Y, G100Q, V104L
notes: Human IgG1; also called 70F3B1
B7: PR003263 (antibody, human IgG1, kappa, V domains shown)
VH: QVQLVESGGGVVQPGRSLRLSCAASGFTFSYYGLNWVRQAPGKGLEWVAVIWFDGTNKYYADSVKGRFTISRDDSKNTLYLQMNSLRAEDTAVYYCARGYGSGSYYNYVMDAWGQGASVTVSS
VL: B5 VL with F29V, N31S, R54G, E70D, H89Q, N92Y, I93K
notes: Human IgG1; also called 77E6C4
B8: PR003264 (antibody, human IgG1, kappa)
heavy: not shown
light: B1 light
notes: Human IgG1; also called 77G10D3

One assay addresses T1, Recombinant human B7H4 Fc chimera (R&D, …). The assay can be described thus: ELISA on coated B7 family protein. As to the method:
B7 family proteins (see Table 7 for details) were respectively diluted to […] with PBS, added into a 96-well plate (Corning, #9018) at 100 μl/well, and incubated at 4° C. overnight. After the liquid was discarded, the plate was washed 3 times with a PBST buffer (pH 7.4, containing 0.05% tween-20), 250 μl of blocking solution containing 2% BSA was added, and the plate was incubated for 1 hour at 37° C. The blocking solution was discarded, the plate was washed 3 times with PBST buffer (pH 7.4, containing 0.05% Tween-20), the antigen-binding protein to be tested was diluted to 2 concentrations of 10 nM and 1 nM, 100 μl of the diluted antigen-binding protein was added to each well, and the plate was incubated for 1 hour at 37° C., with the isotype antibody as the control. After the plate was washed 3 times with PBST buffer (pH 7.4, containing 0.05% Tween-20), goat anti-human HRP secondary antibody (Invitrogen, #A18805) diluted 5000 times was added, and the plate was incubated at 37° C. for 1 hour in the dark. After the plate was washed 3 times with PBST buffer (pH 7.4, containing 0.05% tween-20), TMB (Biopanda, #TMB-S-003) was added at 100 μl/well, and the plate was placed at room temperature for about 30 minutes in the dark; and a stop solution (BBI life sciences, #E661006-0200) was added to each well at 50 μl/well to stop the reaction, and the absorbance at 450 nm (OD450) was determined in a microplate reader (PerkinElemer, #Enspire).
On the technique in general: An ELISA detects its analyte on a solid surface through an enzyme-linked reagent.
For the molecule B1, the binding result is “no binding (tested: 10 nM)”.
Same read-out and setting: next, B2: “no binding (tested: 10 nM)”.

A further assay has as its target T2, biotinylated human B7-H7 protein (Acro …). The assay is described as follows: BLI epitope competition on SA-captured biotinylated B7-H7; competitor (first antibody) PR003251. As to the method:
Epitope competition experiments were performed on the anti-B7-H7 antibodies using the ForteBio Octet Red96e platform with the same experimental buffer as described above. […] After being equilibrated in a buffer for 120 s, the sensors were immersed in various antibodies diluted to 100 nM for 240 s, and the final signal of the antibody binding to B7-H7 was recorded as the 100% signal for that antibody. Second step, epitope competition experiment: B7-H7 was captured using SA sensors at a capture height of 0.25 nm. The sensors were immersed in a first antibody (concentration: 100 nM) for 240 s, then the SA sensors were immersed in a mixture of the first antibody and a second antibody (final concentration of both antibodies: 100 nM) for 240 s, and the difference in signals before and after immersing the sensors in the mixture of the two antibodies was recorded as the signal for that antibody as the second antibody. The inhibition rate was calculated by the following equation, […]
On to B3, for which the “Competitive inhibition rate (%)” value came out at 97.9%.
For the molecule B4, the “Competitive inhibition rate (%)” value was 99.1%.
As to B5, the “Competitive inhibition rate (%)” value worked out at 96.4%.
Consider B6, for which the “Competitive inhibition rate (%)” value came to 100%.
As for B7, the “Competitive inhibition rate (%)” value worked out at 96.9%.

The target of the next assay is T3, human B7-H7 recombinant protein. The assay can be described thus: BLI (Octet), antibody captured on AHC sensor, human B7-H7 in solution, 1:1 global fit. In short, it runs like this:
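Anti-B7-H7 antibodies captured on anti-human Fc sensors to 0.7 nm, then exposed to human B7-H7 at 50-3.125 nM (2-fold series) for 180 s association, 300 s dissociation. Reference-subtracted against 0 nM; kon, kdis and KD from 1:1 global fit.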
Turning to B8, the dissociation constant Kd is 2.94 nM, the koff amounted to 0.000115 s⁻¹ and the kon was 39000 M⁻¹ s⁻¹.
Regarding B3, the Kd is 6.7 nM, the dissociation rate constant (koff) came to 0.000632 s⁻¹ and the kon is 94300 M⁻¹ s⁻¹.
The like results for B4 were, in that order, 32.3 nM, 0.00245 s⁻¹ and 75600 M⁻¹ s⁻¹.
As for B5, the Kd stood at 1.55 nM, the off-rate constant (koff) was found to be 0.000117 s⁻¹ and the kon was determined as 75500 M⁻¹ s⁻¹.
With B6, the equilibrium dissociation constant (Kd) is 1.68 nM, the koff is 0.000102 s⁻¹ and the kon came out at 61100 M⁻¹ s⁻¹.
For B7 the same measures were 5.44 nM, 0.000441 s⁻¹ and 81100 M⁻¹ s⁻¹.

A further assay deals with T2, biotinylated human B7-H7 protein (Acro …). The assay is described as follows: flow cytometry, blocking of biotinylated human B7-H7 binding to HEK-293/CD28H cells. For orientation: A flow cytometer gives signals particle by particle.
Take B8: the IC50 was determined as 1.52 nM and the “Maximum inhibition rate (%)” value was 101%.
With B3, the concentration for half-maximal inhibition (IC50) stood at 1.24 nM and the “Maximum inhibition rate (%)” value worked out at 16.2%.
Turning to B4, the IC50 was determined as 1.59 nM and the “Maximum inhibition rate (%)” value amounted to 27.4%.
For B5 the same measures were 3.37 nM and 26.4%.
The like results for B6 were, in that order, 2.47 nM and 20.4%.
Regarding B7, the IC50 is 1.7 nM and the “Maximum inhibition rate (%)” value was found to be 59.3%.

In general, Kd refers to a measure of binding affinity in units of concentration. Broadly, the koff is the rate constant with which the complex falls apart. In general, kon refers to the second-order rate constant of association. Broadly, the IC50 is the midpoint of a concentration-inhibition curve. Low values mean higher potency, high ones lower potency.
